Reference: PMC6953809

Tests used:
[1] = target: EGFP-rGR as used in the number and brightness assay (Fig 7) and in the ccN&B with alternative ligands (Fig 9) (rat) (UniProt P06536); test: number and brightness assay (N&B); living 3617 cells, transiently transfected, nucleoplasm, 100 nM corticosterone; average molecular brightness (ε) in one channel with different co-expressed partners
[2] = target: EGFP-rGR as used in the number and brightness assay (Fig 7) and in the ccN&B with alternative ligands (Fig 9) (rat) (UniProt P06536); test: cross-correlation number and brightness assay (ccN&B); living 3617 cells +tetracycline, transiently transfected, nuclear Bcc relative to 100 nM corticosterone (100%); 100 nM of alternative ligands (cortisol, prednisolone, dexamethasone, aldosterone) or dexamethasone 10 nM + aldosterone 10 nM, aldosterone 10 nM + RU486 1 μM, corticosterone 10 nM + RU486 1 μM

With “EGFP-rGR as used in the number and brightness assay (Fig 7) and in the ccN&B with alternative ligands (Fig 9) (from UniProt P06536 1-795) (receptor)” the average molecular brightness (ε) of EGFP-rGR paired with mCherry-rGR, percent of the +mCherry reference [1] was 63.3% and the stoichiometry N [1] was 2.
Work on “mCherry-tagged rat mineralocorticoid receptor, transiently expressed in 3617 cells (from UniProt P22199 1-981)” yielded a Bcc value with 100 nM cortisol, percent of the Bcc value with corticosterone [2] of 70% and a Bcc value with 100 nM prednisolone, percent of the Bcc value with corticosterone [2] of 60%.
